From PMC11417369, “DNA sequence and chromatin differentiate sequence-specific transcription factor binding in the human malaria parasite Plasmodium falciparum”

T1: AP2-G D1 (Plasmodium falciparum, UniProt Q8I5I9 2123-2245)
T1 sequence: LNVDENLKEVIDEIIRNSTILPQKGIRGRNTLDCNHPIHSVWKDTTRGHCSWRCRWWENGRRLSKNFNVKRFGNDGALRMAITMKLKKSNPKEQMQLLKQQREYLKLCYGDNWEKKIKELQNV

B1: XGTACX_site1856 (dsDNA)
DNA 1: ATAAATTATAATAACTGTACAAAAATAATATATTCA
DNA 2: TGAATATATTATTTTTGTACAGTTATTATAATTTAT
B2: XGTACX_site4853 (dsDNA)
DNA 1: TTTGACACAATATTTTGTACGAAACTATTAATTCAA
DNA 2: TTGAATTAATAGTTTCGTACAAAATATTGTGTCAAA
B3: XGTACX_site972 (dsDNA)
DNA 1: GAAACAAAATTATTTTGTACATATGACTGTAGATAT
DNA 2: ATATCTACAGTCATATGTACAAAATAATTTTGTTTC
B4: XGTACX_site4444 (dsDNA)
DNA 1: ATATAATATTGAGTTTGTACATATATATATGAAGAT
DNA 2: ATCTTCATATATATATGTACAAACTCAATATTATAT
B5: XGTACX_site5674 (dsDNA)
DNA 1: TATCTAGTTACTCCTTGTACATAATAAATGATTTTT
DNA 2: AAAAATCATTTATTATGTACAAGGAGTAACTAGATA
B6: XGTACX_site1904 (dsDNA)
DNA 1: TTGACATATAAGATATGTACTAATACACACACATAT
DNA 2: ATATGTGTGTGTATTAGTACATATCTTATATGTCAA
B7: XGTACX_site5536 (dsDNA)
DNA 1: TAACACACTAAGAAAAGTACTGATTAATATAATTTT
DNA 2: AAAATTATATTAATCAGTACTTTTCTTAGTGTGTTA
B8: XGTACX_site6203 (dsDNA)
DNA 1: AAAAAAAAAAAATAAAGTACTAAATAATACATTATA
DNA 2: TATAATGTATTATTTAGTACTTTATTTTTTTTTTTT
B9: XGTACX_site8441 (dsDNA)
DNA 1: AATAATATCTGAAAATGTACATTTTATTATAAACAT
DNA 2: ATGTTTATAATAAAATGTACATTTTCAGATATTATT
B10: XGTACX_site2105 (dsDNA)
DNA 1: ATTAATTATTGTAATTGTACATTTTATATATATCCA
DNA 2: TGGATATATATAAAATGTACAATTACAATAATTAAT
B11: XGTACX_site7465 (dsDNA)
DNA 1: TTTAATTCTTATATTTGTACAGATTCATAATTAAAT
DNA 2: ATTTAATTATGAATCTGTACAAATATAAGAATTAAA
B12: XGTACX_site7391 (dsDNA)
DNA 1: TGTCAATCATATAAATGTACATTTTAAATGAGGTGT
DNA 2: ACACCTCATTTAAAATGTACATTTATATGATTGACA
B13: XGTACX_site3331 (dsDNA)
DNA 1: AAAAATTTTTTACATCGTACAGATATATATAATAAA
DNA 2: TTTATTATATATATCTGTACGATGTAAAAAATTTTT
B14: XGTACX_site5075 (dsDNA)
DNA 1: AAATGAAGATTTAAATGTACGAGAGGGTATACAAAT
DNA 2: ATTTGTATACCCTCTCGTACATTTAAATCTTCATTT
B15: XGTACX_site1009 (dsDNA)
DNA 1: AATGTATTTATTTTTTGTACATATCGTGTGTGTATT
DNA 2: AATACACACACGATATGTACAAAAAATAAATACATT
B16: XGTACX_site3550 (dsDNA)
DNA 1: AATATTAAAGAATAATGTACAAAATAAAAGCAAAGA
DNA 2: TCTTTGCTTTTATTTTGTACATTATTCTTTAATATT
B17: XGTACX_site5487 (dsDNA)
DNA 1: ACAAGTTTAACATTTCGTACTTATTGTGTTTTTTTT
DNA 2: AAAAAAAACACAATAAGTACGAAATGTTAAACTTGT
B18: XGTACX_site8765 (dsDNA)
DNA 1: TTCCCTCCTCAAAATTGTACTAGAATAATAACATAA
DNA 2: TTATGTTATTATTCTAGTACAATTTTGAGGAGGGAA
B19: XGTACX_site287 (dsDNA)
DNA 1: AACAAAGAAAATACATGTACAAAAAATATTAACGAA
DNA 2: TTCGTTAATATTTTTTGTACATGTATTTTCTTTGTT
B20: XGTACX_site1874 (dsDNA)
DNA 1: GGTATAAAGAAATTTTGTACATATTTCTCCCTTTAA
DNA 2: TTAAAGGGAGAAATATGTACAAAATTTCTTTATACC
B21: XGTACX_site3854 (dsDNA)
DNA 1: AACCATTCTTCTAATTGTACATTGAAAAATCATGAT
DNA 2: ATCATGATTTTTCAATGTACAATTAGAAGAATGGTT
B22: XGTACX_site1104 (dsDNA)
DNA 1: ACCATATAATTTTTTTGTACATAATGATTTTTTTTT
DNA 2: AAAAAAAAATCATTATGTACAAAAAAATTATATGGT
B23: XGTACX_site5843 (dsDNA)
DNA 1: ATTTCAAAATATAGCTGTACAAAAAATGTAGATATA
DNA 2: TATATCTACATTTTTTGTACAGCTATATTTTGAAAT
B24: XGTACX_site8705 (dsDNA)
DNA 1: ACTAAAGTGTATCACTGTACAATTCTTCTCTTTTTT
DNA 2: AAAAAAGAGAAGAATTGTACAGTGATACACTTTAGT
B25: XGTACX_site8946 (dsDNA)
DNA 1: ATTAATCCAAATGAATGTACTTAATAATGTAATTAT
DNA 2: ATAATTACATTATTAAGTACATTCATTTGGATTAAT
B26: XGTACX_site8642 (dsDNA)
DNA 1: CAAAGCATAGTATGATGTACAAATGTTCCTATAATA
DNA 2: TATTATAGGAACATTTGTACATCATACTATGCTTTG
B27: XGTACX_site8424 (dsDNA)
DNA 1: TATTTTGTCATAGAACGTACTTATAAATATTTTTTT
DNA 2: AAAAAAATATTTATAAGTACGTTCTATGACAAAATA
B28: XGTACX_site4930 (dsDNA)
DNA 1: TGGAGGATAGTTCACAGTACCCAGTAACTCTACGGA
DNA 2: TCCGTAGAGTTACTGGGTACTGTGAACTATCCTCCA
B29: XGTACX_site841 (dsDNA)
DNA 1: TATATATATAATATATGTACTGATATGCTATTTACT
DNA 2: AGTAAATAGCATATCAGTACATATATTATATATATA
B30: XGTACX_site2156 (dsDNA)
DNA 1: AATATATATATATATAGTACATATTTTTATTCATTA
DNA 2: TAATGAATAAAAATATGTACTATATATATATATATT
B31: XGTACX_site4926 (dsDNA)
DNA 1: ATCAACATTATGGTTAGTACTTAGTGAATTGTTAAT
DNA 2: ATTAACAATTCACTAAGTACTAACCATAATGTTGAT
B32: XGTACX_site8398 (dsDNA)
DNA 1: TAAAAAATAAAATAATGTACATATGAATTATATATT
DNA 2: AATATATAATTCATATGTACATTATTTTATTTTTTA

What follows are binders tested against T1, AP2-G D1 (assay: gcPBM; about 25 ug protein; PBS, 1% milk, 0.2 mg/ml BSA, salmon testes DNA, 0.03% Triton X-100). Details: tags: N-terminal GST (pGEX-4T-1), kept; label: surface-attached array probe.

Row | Binder | binding signal
1 | B1 | 11.1 ln median PBM intensity, better of two orientations
2 | B2 | 11 ln median PBM intensity, better of two orientations
3 | B3 | 11.2 ln median PBM intensity, better of two orientations
4 | B4 | 11.1 ln median PBM intensity, better of two orientations
5 | B5 | 11 ln median PBM intensity, better of two orientations
6 | B6 | 11.2 ln median PBM intensity, better of two orientations
7 | B7 | 11.2 ln median PBM intensity, better of two orientations
8 | B8 | 11.2 ln median PBM intensity, better of two orientations
9 | B9 | 11.2 ln median PBM intensity, better of two orientations
10 | B10 | 11.1 ln median PBM intensity, better of two orientations
11 | B11 | 11.2 ln median PBM intensity, better of two orientations
12 | B12 | 11.2 ln median PBM intensity, better of two orientations
13 | B13 | 11.2 ln median PBM intensity, better of two orientations
14 | B14 | 11.2 ln median PBM intensity, better of two orientations
15 | B15 | 11.2 ln median PBM intensity, better of two orientations
16 | B16 | 10.9 ln median PBM intensity, better of two orientations

Row | Binder | binding signal
17 | B17 | 10.9 ln median PBM intensity, better of two orientations
18 | B18 | 11 ln median PBM intensity, better of two orientations
19 | B19 | 11.2 ln median PBM intensity, better of two orientations
20 | B20 | 11.1 ln median PBM intensity, better of two orientations
21 | B21 | 11.1 ln median PBM intensity, better of two orientations
22 | B22 | 11.1 ln median PBM intensity, better of two orientations
23 | B23 | 11.2 ln median PBM intensity, better of two orientations
24 | B24 | 10.9 ln median PBM intensity, better of two orientations
25 | B25 | 11.2 ln median PBM intensity, better of two orientations
26 | B26 | 11 ln median PBM intensity, better of two orientations
27 | B27 | 11.3 ln median PBM intensity, better of two orientations
28 | B28 | 10.9 ln median PBM intensity, better of two orientations
29 | B29 | 11 ln median PBM intensity, better of two orientations
30 | B30 | 11.1 ln median PBM intensity, better of two orientations
31 | B31 | 11 ln median PBM intensity, better of two orientations
32 | B32 | 11.2 ln median PBM intensity, better of two orientations
